Reference: patent US12559545

Experiments:
[1] = molecular target: HeV-RBP head domain (residues 185-604), recombinant soluble (Hendra virus) (UniProt O89343); test: BLI on HeV RBP head domain, after first mAb HENV-10
[2] = molecular target: HeV-RBP head domain (residues 185-604), recombinant soluble (Hendra virus) (UniProt O89343); test: BLI on HeV RBP head domain, after first mAb HENV-43
[3] = molecular target: HeV-RBP head domain (residues 185-604), recombinant soluble (Hendra virus) (UniProt O89343); test: BLI on HeV RBP head domain, after first mAb HENV-2
[4] = molecular target: HeV-RBP head domain (residues 185-604), recombinant soluble (Hendra virus) (UniProt O89343); test: BLI on HeV RBP head domain, after first mAb HENV-1
[5] = molecular target: full-length NiVB-RBP expressed on the surface of transfected cells (Nipah virus, strain Bangladesh) (UniProt Q9IH62)
[6] = molecular target: full-length HeV-RBP expressed on the surface of transfected cells (Hendra virus) (UniProt O89343)
[7] = molecular target: full-length NiVM-RBP expressed on the surface of transfected cells (Nipah virus, strain Malaysia) (UniProt Q9IH62)
[8] = molecular target: HeV-RBP head domain (residues 185-604), recombinant soluble (Hendra virus) (UniProt O89343); test: BLI on HeV RBP head domain, after first mAb HENV-26
[9] = molecular target: HeV-RBP head domain (residues 185-604), recombinant soluble (Hendra virus) (UniProt O89343); test: BLI on HeV RBP head domain, after first mAb HENV-9
[10] = molecular target: HeV-RBP head domain (residues 185-604), recombinant soluble (Hendra virus) (UniProt O89343); test: BLI on HeV RBP head domain, after first mAb HENV-32
[11] = molecular target: NiVM-RBP head domain (residues 183-602), recombinant soluble (Nipah virus, strain Malaysia) (UniProt Q9IH62); test: ELISA, RBP head domain coated on plate, hybridoma IgG
[12] = molecular target: HeV-RBP head domain (residues 185-604), recombinant soluble (Hendra virus) (UniProt O89343); test: as above
[13] = molecular target: NiVB-RBP head domain (residues 185-602), recombinant soluble (Nipah virus, strain Bangladesh) (UniProt Q9IH62); test: as above
[14] = molecular target: HeV-RBP head domain (residues 185-604), recombinant soluble (Hendra virus) (UniProt O89343); test: BLI on HeV RBP head domain, after first mAb HENV-21
[15] = molecular target: HeV-RBP head domain (residues 185-604), recombinant soluble (Hendra virus) (UniProt O89343); test: BLI on HeV RBP head domain, after first mAb HENV-18
[16] = molecular target: HeV-RBP head domain (residues 185-604), recombinant soluble (Hendra virus) (UniProt O89343); test: BLI on HeV RBP head domain, after first mAb HENV-19
[17] = molecular target: NiVB RBP on live Nipah virus Bangladesh (Nipah virus, strain Bangladesh) (UniProt Q9IH62); test: cell-based or functional assay
[18] = molecular target: HeV RBP on live Hendra virus (Hendra virus) (UniProt O89343); test: cell-based or functional assay

HENV-26 (antibody) was tested, and the % of signal of second mAb alone [1] was 100%, the % of signal of second mAb alone [2] was 109% and the % of signal of second mAb alone [3] was 97%. It also gave a % of signal of second mAb alone [4] of 97%, an EC50 [5] of 0.326 µg/mL and an EC50 [6] of 0.325 µg/mL. It also gave an EC50 [7] of 0.326 µg/mL, a % of signal of second mAb alone [8] of -5% and a % of signal of second mAb alone [9] of 97%. It also gave a % of signal of second mAb alone [10] of 100%, an Area under the curve [11] of 11 and an EC50 [11] of 0.07 µg/mL. The Area under the curve [12] was 5.39, the EC50 [12] was 0.14 µg/mL and the Area under the curve [13] was 10.5. For the same substance, the EC50 [13] was 0.09 µg/mL, the % of signal of second mAb alone [14] was 99% and the % of signal of second mAb alone [15] was 91%. For the same substance, the % of signal of second mAb alone [16] was 91%, the Area under the curve (neutralization) [17] was 289 and the IC50, plaque reduction neutralization of live virus [17] was 0.03 µg/mL. The IC80, plaque reduction neutralization of live virus [17] was 0.12 µg/mL, the Max % Inhibition (neutralization) [17] was 100% and the Area under the curve (neutralization) [18] was 281. The IC50, plaque reduction neutralization of live virus [18] was 0.07 µg/mL, the IC80, plaque reduction neutralization of live virus [18] was 0.19 µg/mL and the Max % Inhibition (neutralization) [18] was 100%.
